Laboratory results reported in the supplement of paper PMC12667976.

B1: library; numbered along this chain (parent)
chain: MATDAALRRLLRLHRTEIAVAVDSAFPLLHALADHDVVPEDKFQETLHLKEKEGCPQAFHALLSWLLTQDSTAILDFWRVLFKDYNLERYGRLQPILDSFPKDVDLSQPRKGRKPPAVPKALVPPPRLPTKRKASEEARAAAPAALTPRGTASPGSQLKAKPPKKPESSAEQQRLPLGNGIQTMSASVQRAVAMSSGDVPGARGAVEGILIQQVFESGGSKKCIQVGGEFYTPSKFEDSGSGKNKARSSSGPKPLVRAKGAQGAAPGGGEARLGQQGSVPAPLALPSDPQLHQKNEDECAVCRDGGELICCDGCPRAFHLACLSPPLREIPSGTWRCSSCLQATVQEVQPRAEEPRPQEPPVETPLPPGLRSAGEEVRGPPGEPLAGMDTTLVYKHLPAPPSAAPLPGLDSSALHPLLCVGPEGQQNLAPGARCGVCGDGTDVLRCTHCAAAFHWRCHFPAGTSRPGTGLRCRSCSGDVTPAPVEGVLAPSPARLAPGPAKDDTASHEPALHRDDLESLLSEHTFDGILQWAIQSMARPAAPFPS

Variants of: B1
Test: AIRE transcriptional activation functional score (insulin promoter-GFP; nonsense median 0, synonymous median 1) (normalised score); higher = higher AIRE activity (more reporter activation)
Settings: with insulin promoter-GFP reporter in HEK293
How it was run: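 Using Bxb1 recombinase, codon-optimized NNN-codon libraries for three AIRE regions were inserted into Flp-In T-REx HEK293 landing-pad cells with an insulin core promoter-GFP reporter. After integrants (mCherry+, BFP−) were sorted at day 7 and expanded for 7 days, the top 10% GFP and unselected integrant populations underwent tile-sequencing. Functional scores are wild-type-subtracted enrichments of variants in select over non-select samples. A cutoff of 10 counts per million in non-select applied, and values were rescaled (nonsense median 0, synonymous median 1) and averaged over biological replicates.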

AIRE transcriptional activation functional score of substitutions, site by site:
G462: M -0.0181 | T 0.372 | Y 1.24 | N 1.34 | S 0.982 | V 1.03 | I 0.802 | R 1.01 | Q 1.03 | H 0.925 | L 0.83 | W 0.899 | P 0.607 | K -0.837
T463: R 0.998 | C 1.42 | Y 0.384 | W 1.05 | K 0.983 | D 1.54 | V 1.49 | H 0.813 | G 1.01 | A 0.614 | Q 0.155 | F 0.0316 | P 1.14 | I 0.876 | M 1.51 | N 0.736 | L 1.06 | S 1.01
P466: M 0.678 | I 1.21 | T 1.12 | H 1.46 | W 1.42 | D 0.553 | N 0.444 | L 1.1 | A 0.83 | F 0.774 | R 0.843 | C 1.89 | S 1.08 | K 0.864 | Q 1.02 | E 0.232 | G 1.23 | V 1.06 | Y 1.21
L470: G 0.741 | D 0.572 | V 0.842 | H 0.541 | K 0.988 | I 0.814 | N 1.06 | W 1.38 | Q 1.11 | C 0.85 | R 0.997 | E 0.628 | F 0.971 | T 0.558 | A 1.02 | M 0.671 | S 0.622 | Y 0.549 | P 0.863
G469: N 1 | C 1.56 | I 0.951 | A 0.409 | S 1.15 | F 1.42 | R 0.913 | D 0.77 | T 0.687 | W 1.08 | E 0.672 | V 1.14 | H 1.19 | M 1.18 | P 0.911 | Q 0.807 | K 0.564 | L 0.726
S464: W -0.451 | H 1.17 | V 0.722 | P 1.21 | L 1.06 | G 1.27 | M -0.078 | R 0.955 | T 0.783 | C 1.18 | D 0.7 | I 1.17 | N 0.563 | F 0.807 | Y 1.23 | E 1.32 | A 0.955 | K 1.18
T468: G 1.08 | S 0.945 | N 1.08 | C 1.14 | P 0.984 | V 0.997 | A 1.03 | L 1.18 | D 1.18 | Q 1.22 | H 0.996 | E 0.46 | W 1.29 | Y 1.25 | F 1.02 | K 0.654 | I 1.16 | R 0.696 | M 1.12
G467: L 1.46 | I 0.79 | D 0.675 | C 0.822 | R 1.01 | E 1.16 | W 1.12 | F 1.29 | V 1.06 | K 0.889 | S 1.06 | T 0.0754 | A 0.947 | Y 0.488 | N 0.68 | M 0.866 | P 1.04 | H 1.42
R465: N -1.1 | W 1.18 | Q 0.443 | V 0.453 | C 0.66 | H 0.546 | G 0.791 | L 1.01 | S 1.04 | T -0.654 | P 0.829 | Y 1.39 | F 1.15 | M 0.403 | A 0.476 | D 0.53 | I 0.773
R471: H 1.03 | F 1.09 | A 0.351 | D 0.476 | C 0.215 | G 0.676 | E 0.786
